In experiment [1] the target is T1, 15N-PEX14(16–80W) (human, UniProt O75381 16-80, 15N-labelled).
T1 chain: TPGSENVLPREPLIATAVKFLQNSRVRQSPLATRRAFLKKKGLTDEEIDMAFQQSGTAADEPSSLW
The experiment is described as follows: NMR titration.

The target of experiment [2] is microtubules / purified porcine brain tubulin (porcine). The experiment is described as follows: ELISA. On the technique in general: ELISA stands for enzyme-linked immunosorbent assay.
For a further experiment, the target named is ß-tubulin(388–444) (human, UniProt P07437 388-444). As to the kind of experiment: ITC. In general terms: ITC needs no label: the signal is the heat of the interaction.
In experiment [3] the target is T1, 15N-PEX14(16–80W). The experiment is described as follows: NMR titration.
The target of experiment [4] is full-length His6-TEV-PEX5S (human, UniProt P50542-2 1-602). The experiment is described as follows: ELISA.

ß-tubulin(388–444), sequence (P07437 388-444): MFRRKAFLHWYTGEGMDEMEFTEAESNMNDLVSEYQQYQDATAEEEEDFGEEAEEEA

With MNDLVSEYQQYQDAT [LVSEY peptide], in the experiment with 15N-PEX14(16–80W) [1], the Kd (in general, the constant that tells how readily two partners part at equilibrium) was approximately 5000 nM.

In the case of RKAFLHWYTGEGMDE [FLHWY peptide], in the experiment with 15N-PEX14(16–80W) [1], the Kd was approximately 282000 nM.

B1: GST-PEX14-NTD F52A (domain or fragment)
chain: TPGSENVLPREPLIATAVKFLQNSRVRQSPLATRRAALKKKGLTDEEIDMAFQQSGTAADEPSSL
B1 showed a Kd in experiment [2] of 39 ± 7.4 nM.

B2: PEX14-NTD (as used in ITC) (domain or fragment)
chain: TPGSENVLPREPLIATAVKFLQNSRVRQSPLATRRAFLKKKGLTDEEIDMAFQQSGTAADEPSSL
Regarding B2, the stoichiometry N (usually a count of units in the complex or per binding partner) with ß-tubulin(388–444) came to 2.

B3: GST-PEX14-NTD K56A (domain or fragment)
chain: MASSEQAEQPSQPSSTPGSENVLPREPLIATAVKFLQNSRVRQSPLATRRAFLKKAGLTDEEIDMAFQQSGTAADEPS
B3: binding in experiment [2] was put at a Kd of 12.5 ± 1.3 nM.

B4: GST-PEX14-NTD K54A (domain or fragment)
chain: MASSEQAEQPSQPSSTPGSENVLPREPLIATAVKFLQNSRVRQSPLATRRAFLAKKGLTDEEIDMAFQQSGTAADEPS
Consider B4, for which binding in experiment [2] was characterised by a dissociation constant (Kd) of 3.9 ± 0.2 nM.

B5: GST-PEX14-NTD F52A/K56A (domain or fragment)
chain: MASSEQAEQPSQPSSTPGSENVLPREPLIATAVKFLQNSRVRQSPLATRRAALKKAGLTDEEIDMAFQQSGTAADEPS
For the molecule B5, in experiment [2], the Kd turned out to be 89 ± 17 nM.

Regarding ALSENWAQEFLAAGDA [WAQEF peptide], the binding result with 15N-PEX14(16–80W) [3] is on record as “binds”.

B6: GST-PEX14-NTD (domain or fragment)
chain: MASSEQAEQPSQPSSTPGSENVLPREPLIATAVKFLQNSRVRQSPLATRRAFLKKKGLTDEEIDMAFQQSGTAADEPSSL
In experiment [4], B6 yielded a Kd of approximately 0.5 nM.

B7: His-PEX14-NTD (domain or fragment)
chain: MASSEQAEQPSQPSSTPGSENVLPREPLIATAVKFLQNSRVRQSPLATRRAFLKKKGLTDEEIDMAFQQSGTAADEPSSL
With B7, in experiment [4], the Kd is approximately 1.3 nM.

For the origin of these results see publication doi:10.1101/2020.07.23.218024 (bioRxiv, 2020).
